Protein stability index data for 94 variants are collected here from the supplement of paper PMC10567573.

B1: KRT13 (parent)
chain: TPGIDLTRVLAEMREQYEAMAERN
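Further: lentivirally expressed fusions sorted by FACS into six bins by GFP to DsRed ratio, PSI derived from sequencing read proportions per bin multiplied by bin number.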

Variants of B1 are the subject of this data set. The data set can be described thus: protein stability index of a GFP-peptide fusion (GPS, HEK-293T) (PSI 1-6); higher = more stable. As to conditions: c terminus: a fixed tail appended.
For the variant TPGIDLTRVLNEMREQYEAMAERN [A11N], the protein stability index turned out to be 3.77.

As for TPGIDLTRVLYEMREQYEAMAERN [A11Y], the protein stability index worked out at 3.74.

With TPGIDLTRVLLEMREQYEAMAERN [A11L], the protein stability index was 3.51.

With TPGIDLTRVLHEMREQYEAMAERN [A11H], the protein stability index was determined as 3.95.

Turning to TPGIDLTRVLIEMREQYEAMAERN [A11I], the protein stability index is 3.51.

For TPGIDLTRVLKEMREQYEAMAERN [A11K], the protein stability index came to 4.23.

With TPGIDLTRVLVEMREQYEAMAERN [A11V], the protein stability index stood at 3.79.

Consider TPGIDLTRVLDEMREQYEAMAERN [A11D], for which the protein stability index was 4.01.

Consider TPGIDLTRVLSEMREQYEAMAERN [A11S], for which the protein stability index was 4.61.

For the variant TPGIDLTRVLPEMREQYEAMAERN [A11P], the protein stability index stood at 4.65.

For TPGIDLTRVLMEMREQYEAMAERN [A11M], the protein stability index came out at 2.79.

Consider TPGIDLTRVLFEMREQYEAMAERN [A11F], for which the protein stability index stood at 3.7.

As for TPGIDLTRVLQEMREQYEAMAERN [A11Q], the protein stability index worked out at 2.85.

Consider TPGIDLTRVLTEMREQYEAMAERN [A11T], for which the protein stability index is 3.88.

For the variant TPGIDLTRVLAEMRAQYEAMAERN [E15A], the protein stability index is 3.47.

For TPGIDLTRVLAEMRYQYEAMAERN [E15Y], the protein stability index turned out to be 2.42.

As to TPGIDLTRVLAEMRFQYEAMAERN [E15F], the protein stability index came to 3.26.

In the case of TPGIDLTRVLAEMRSQYEAMAERN [E15S], the protein stability index was determined as 3.61.

Take TPGIDLTRVLAEMRVQYEAMAERN [E15V]: the protein stability index was determined as 2.24.

Take TPGIDLTRVLAEMRLQYEAMAERN [E15L]: the protein stability index was 3.04.

As to TPGIDLTRVLAEMRGQYEAMAERN [E15G], the protein stability index was 3.82.

For TPGIDLTRVLAEMRDQYEAMAERN [E15D], the protein stability index stood at 4.24.

As to TPGIDLTRVLAEMRTQYEAMAERN [E15T], the protein stability index amounted to 3.43.

For the variant TPGIDLTRVLAEMRIQYEAMAERN [E15I], the protein stability index was found to be 2.85.

For TPGIDLTRVLAEMRQQYEAMAERN [E15Q], the protein stability index is 3.28.

Take TPGIDLTRVLAEMRMQYEAMAERN [E15M]: the protein stability index is 2.91.

On to TPGIDLTRVLAEMRRQYEAMAERN [E15R], for which the protein stability index is 3.11.

On to TPGIDLTRVLAEMRWQYEAMAERN [E15W], for which the protein stability index was found to be 2.07.

On to TPGIDLTRVLAEMRPQYEAMAERN [E15P], for which the protein stability index was found to be 3.83.

Consider TPGIDLTRVLAEMRCQYEAMAERN [E15C], for which the protein stability index turned out to be 3.34.

As to TPGIDLTRVLAEMRHQYEAMAERN [E15H], the protein stability index was determined as 3.45.

Consider TPGIDLTRVLAEMRKQYEAMAERN [E15K], for which the protein stability index is 3.83.

TPGIDLTRVLAEMREQNEAMAERN [Y17N]: the protein stability index was found to be 4.56.

With TPGIDLTRVLAEMREQAEAMAERN [Y17A], the protein stability index worked out at 5.29.

TPGIDLTRVLAEMREQWEAMAERN [Y17W]: the protein stability index was found to be 5.02.

On to TPGIDLTRVLAEMREQREAMAERN [Y17R], for which the protein stability index was determined as 4.75.

As for TPGIDLTRVLAEMREQTEAMAERN [Y17T], the protein stability index is 5.8.

On to TPGIDLTRVLAEMREQHEAMAERN [Y17H], for which the protein stability index came out at 4.76.

For the variant TPGIDLTRVLAEMREQKEAMAERN [Y17K], the protein stability index was 5.5.

As for TPGIDLTRVLAEMREQDEAMAERN [Y17D], the protein stability index was 5.4.

With TPGIDLTRVLAEMREQCEAMAERN [Y17C], the protein stability index came out at 4.23.

Take TPGIDLTRVLAEMREQVEAMAERN [Y17V]: the protein stability index was found to be 4.29.

In the case of TPGIDLTRVLAEMREQMEAMAERN [Y17M], the protein stability index amounted to 4.3.

In the case of TPGIDLTRVLAEMREQGEAMAERN [Y17G], the protein stability index was 6.

Take TPGIDLTRVLAEMREQEEAMAERN [Y17E]: the protein stability index was 4.6.

With TPGIDLTRSLAEMREQYEAMAERN [V9S], the protein stability index amounted to 3.41.

For the variant TPGIDLTRTLAEMREQYEAMAERN [V9T], the protein stability index was 3.85.

With TPGIDLTRQLAEMREQYEAMAERN [V9Q], the protein stability index was found to be 4.41.

As for TPGIDLTRELAEMREQYEAMAERN [V9E], the protein stability index was found to be 4.71.

For the variant TPGIDLTRHLAEMREQYEAMAERN [V9H], the protein stability index was determined as 4.47.

For TPGIDLTRMLAEMREQYEAMAERN [V9M], the protein stability index came to 3.94.

Regarding TPGIDLTRCLAEMREQYEAMAERN [V9C], the protein stability index is 4.47.

For TPGIDLTRILAEMREQYEAMAERN [V9I], the protein stability index was found to be 3.06.

TPGIDLTRKLAEMREQYEAMAERN [V9K]: the protein stability index was 4.34.

Turning to TPGIDLTRLLAEMREQYEAMAERN [V9L], the protein stability index was 2.25.

With TPGIDLTRNLAEMREQYEAMAERN [V9N], the protein stability index stood at 4.86.

On to TPGIDLTRRLAEMREQYEAMAERN [V9R], for which the protein stability index was 4.56.

TPGIDLTRYLAEMREQYEAMAERN [V9Y]: the protein stability index is 3.01.

Turning to TPGIDLTRDLAEMREQYEAMAERN [V9D], the protein stability index stood at 4.54.

For TPGIDLTRPLAEMREQYEAMAERN [V9P], the protein stability index turned out to be 4.49.

Consider TPGIDLTRVLAEGREQYEAMAERN [M13G], for which the protein stability index turned out to be 4.72.

With TPGIDLTRVLAEKREQYEAMAERN [M13K], the protein stability index worked out at 4.24.

TPGIDLTRVLAEQREQYEAMAERN [M13Q]: the protein stability index worked out at 4.1.

As to TPGIDLTRVLAETREQYEAMAERN [M13T], the protein stability index turned out to be 4.53.

As for TPGIDLTRVLAEHREQYEAMAERN [M13H], the protein stability index was determined as 4.74.

In the case of TPGIDLTRVLAENREQYEAMAERN [M13N], the protein stability index came out at 5.48.

TPGIDLTRVLAERREQYEAMAERN [M13R]: the protein stability index was found to be 4.93.

TPGIDLTRVLAEYREQYEAMAERN [M13Y]: the protein stability index was 4.11.

TPGIDLTRVLAECREQYEAMAERN [M13C]: the protein stability index worked out at 4.23.

Consider TPGIDLTRVLAESREQYEAMAERN [M13S], for which the protein stability index was found to be 4.7.

Take TPGIDLTRVLAEIREQYEAMAERN [M13I]: the protein stability index worked out at 3.71.

With TPGIDLTRVLAEAREQYEAMAERN [M13A], the protein stability index amounted to 4.67.

Regarding TPGIDLTRVLAEDREQYEAMAERN [M13D], the protein stability index worked out at 5.36.

Regarding TPGIDLTRVLAEVREQYEAMAERN [M13V], the protein stability index stood at 3.3.

On to TPGIDLTRVLAEPREQYEAMAERN [M13P], for which the protein stability index came out at 3.3.

On to TPGIDLTRVLAEEREQYEAMAERN [M13E], for which the protein stability index was 5.33.

Take TPGIDLTRVLAEMREQYEDMAERN [A19D]: the protein stability index was found to be 4.08.

For the variant TPGIDLTRVLAEMREQYEFMAERN [A19F], the protein stability index is 4.13.

Take TPGIDLTRVLAEMREQYELMAERN [A19L]: the protein stability index came to 2.92.

Consider TPGIDLTRVLAEMREQYEPMAERN [A19P], for which the protein stability index is 4.08.

TPGIDLTRVLAEMREQYENMAERN [A19N]: the protein stability index was 4.28.

For TPGIDLTRVLAEMREQYEVMAERN [A19V], the protein stability index is 3.23.

Take TPGIDLTRVLAEMREQYEKMAERN [A19K]: the protein stability index was 3.53.

With TPGIDLTRVLAEMREQYEQMAERN [A19Q], the protein stability index stood at 3.48.

For TPGIDLTRVLAEMREQYECMAERN [A19C], the protein stability index stood at 3.99.

As to TPGIDLTRVLAEMREQYEHMAERN [A19H], the protein stability index is 3.71.

Regarding TPGIDLTRVLAEMREQYEMMAERN [A19M], the protein stability index is 3.54.

For the variant TPGIDLTRVLAEMREQYEWMAERN [A19W], the protein stability index was found to be 3.4.

With TPGIDLTRVLAEMREQYESMAERN [A19S], the protein stability index amounted to 4.53.

With TPGIDLTRVLAEMREQYEIMAERN [A19I], the protein stability index was determined as 3.73.

Regarding TPGIDLTRVLAEMREQYEGMAERN [A19G], the protein stability index is 4.22.

Take TPGIDLTRVLAEMREQYETMAERN [A19T]: the protein stability index is 4.16.

As for TPGIDLTRVLAEMREQYERMAERN [A19R], the protein stability index came to 3.57.

As for TPGIDLTRVLAEMREQYEYMAERN [A19Y], the protein stability index was determined as 3.76.
